The record followed here is publication PMC11461821, “Structure of a Rhs effector clade domain provides mechanistic insights into type VI secretion system toxin delivery” (Nature Communications, 2024).

B2: Tse15 N-terminal clade domain (residues 1-334) (domain or fragment)
chain: MAKENTQQKEIKRQPAVELAVFNLNSVTDVADLQMIASQVQLYLQVCGNTTLEQIKSKANITTVANIFALTGSVLDLMLYATDKKTGDAAVQRGALLAANLIGLFSEPNNEAHARMALRPMFGLMAECLYRENGKIKETDIKRLGLHLNAMIAGDLENFLKETQAKLSSLLISATTLGVTILQSMATPATGINAGITTAAGASAEKRDPKLKFTNWAVPLIDLLGKPSQANLTPKIQPNITSRLQQEATQAIAALSQTLQQQANAGQKYTLAWLLQETLKAIQALENKGNASVPINQTGEYERHTKGDTLEFVSLQADALNAPPCEGADSQSGK
notes: Tse15, A. baumannii AB307-0294, N-terminal clade domain, residues 1-334; Residues 14-333 are modelled in the structure; also called N-terminal clade-specific domain; not shown: StrepTag-II, N-terminal, kept

Test [1] concerns the target B2. In words: pull-down + SEC; nickel affinity (HisTrap HP) from E. coli lysate by the His tag that only the CTD carries, then analytical size-exclusion (Superdex200 10/300 GL Increase, 50 mM Hepes pH 8.0, 0.3 M NaCl); fragments identified by SDS-PAGE, Western blot, peptide fingerprinting and N-terminal sequencing. The note with it: partners not purified. Background: In gel filtration, larger molecules generally elute earlier.

The target of test [2] is T1, Tse15 central Rhs domain (residues 335-1395) (Acinetobacter baumannii (strain …, UniProt A0A5K6CSR3 335-1395)).
T1 construct: Tse15, A. baumannii AB307-0294, central Rhs domain, residues 335-1395; also called Rhs cage; β-cocoon
T1 sequence: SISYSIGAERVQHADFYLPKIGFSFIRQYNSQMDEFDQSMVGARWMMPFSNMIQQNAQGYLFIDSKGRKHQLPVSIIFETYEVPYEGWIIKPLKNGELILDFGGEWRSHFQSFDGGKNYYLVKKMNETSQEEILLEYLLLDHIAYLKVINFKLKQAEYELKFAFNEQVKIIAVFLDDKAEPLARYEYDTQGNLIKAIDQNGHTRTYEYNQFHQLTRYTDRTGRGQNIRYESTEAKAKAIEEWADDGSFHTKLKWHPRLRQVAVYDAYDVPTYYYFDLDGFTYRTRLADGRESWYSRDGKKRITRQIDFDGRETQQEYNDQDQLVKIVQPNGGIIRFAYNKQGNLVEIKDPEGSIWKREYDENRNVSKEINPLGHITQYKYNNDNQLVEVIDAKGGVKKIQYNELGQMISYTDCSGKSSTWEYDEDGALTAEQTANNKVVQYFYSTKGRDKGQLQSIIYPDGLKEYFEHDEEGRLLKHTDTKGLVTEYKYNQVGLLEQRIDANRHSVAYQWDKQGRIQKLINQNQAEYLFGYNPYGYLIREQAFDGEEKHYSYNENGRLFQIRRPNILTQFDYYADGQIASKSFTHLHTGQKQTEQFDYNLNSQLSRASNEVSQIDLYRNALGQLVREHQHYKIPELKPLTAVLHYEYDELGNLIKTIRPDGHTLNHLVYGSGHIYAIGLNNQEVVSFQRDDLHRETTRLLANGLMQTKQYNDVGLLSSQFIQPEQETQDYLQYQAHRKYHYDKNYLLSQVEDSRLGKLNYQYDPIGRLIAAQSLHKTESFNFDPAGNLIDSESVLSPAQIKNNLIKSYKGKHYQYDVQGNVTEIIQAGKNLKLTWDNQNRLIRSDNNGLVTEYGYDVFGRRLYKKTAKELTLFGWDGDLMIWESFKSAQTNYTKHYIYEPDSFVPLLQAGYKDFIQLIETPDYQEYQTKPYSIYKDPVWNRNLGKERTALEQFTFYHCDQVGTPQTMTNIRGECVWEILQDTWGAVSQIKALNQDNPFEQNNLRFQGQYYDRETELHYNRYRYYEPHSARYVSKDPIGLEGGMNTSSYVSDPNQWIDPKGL
The description is as above. The note with it: partners not purified.

The target of test [3] is T1, Tse15 central Rhs domain (residues …). The test can be described thus: cryo-EM structure; single particle cryo-EM of purified protein, 3 mg/mL, UltrAuFoil grids; Tse15 at 200 kV (Talos Arctica), Tse15NN at 300 kV (Titan Krios). The note with it: both partners purified.

B1: Tse15 toxic C-terminal domain (residues 1396-1590) (domain or fragment)
chain: NSFNYGEMFGIPASAQSGLAYQGQRNYECYAETGELCKIKVPPLFDYVACSGGGLGIGVGFVKNQWTGEYYISGSKDSLLIPVAKSVAQNKQFSAKDLAGASCVGGNIHNIPSYTKTTMTMGEITNEFVSGASVTVGGGAYGAVANVVVPLVSKSSPVKGTWASELGVGTPGFNVGVSGTVSVDTILDAVKPSKK
notes: Tse15, A. baumannii AB307-0294, toxic CTD, residues 1396-1590; also called CTD; toxin domain; not shown: His6, C-terminal, kept
On to B1, for which the binding result in test [1] and in test [2] was “binds” throughout.

As for B2, the binding result in test [3] is “binds”.
